From publication PMC4265319 come the findings set out here.

In series [1] the target is T1, KdpE (Staphylococcus aureus) (UniProt Q2FWH6).
T1 sequence: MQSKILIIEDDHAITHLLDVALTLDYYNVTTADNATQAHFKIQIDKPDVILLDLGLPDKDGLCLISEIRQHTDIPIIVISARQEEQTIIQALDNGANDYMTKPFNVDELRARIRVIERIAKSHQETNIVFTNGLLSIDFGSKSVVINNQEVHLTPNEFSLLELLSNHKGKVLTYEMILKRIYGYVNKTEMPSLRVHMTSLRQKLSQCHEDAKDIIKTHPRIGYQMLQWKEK
Description: EMSA. The following applies: EMSA 25 C, 20 min, 20 ul, 1x binding buffer, 2.5% glycerol, 50 ng/ml poly(dI-dC), 0.05% NP-40; CymR/KdpE buffer: 20 mM Tris-HCl pH 7.5, 10 mM MgCl2, 100 mM ….

Series [2] concerns the target T2, LacR (Staphylococcus aureus) (UniProt Q5HE08).
T2 sequence: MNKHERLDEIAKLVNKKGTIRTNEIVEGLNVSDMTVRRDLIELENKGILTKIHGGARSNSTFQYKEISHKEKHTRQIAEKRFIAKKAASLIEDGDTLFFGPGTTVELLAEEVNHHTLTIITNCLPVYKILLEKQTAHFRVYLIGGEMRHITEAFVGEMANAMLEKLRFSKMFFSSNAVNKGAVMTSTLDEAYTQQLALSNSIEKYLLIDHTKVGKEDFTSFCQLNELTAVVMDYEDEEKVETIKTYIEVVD
Put plainly: EMSA. The following applies: EMSA 25 C, 20 min, 20 ul, 1x binding buffer, 2.5% glycerol, 50 ng/ml poly(dI-dC), 0.05% NP-40; CymR/KdpE buffer: 20 mM Tris-HCl pH 7.5, 10 mM MgCl2, 100 mM …. (In general: A gel shift assay detects complexes by their altered migration in electrophoresis.)

With “GACATAACCTTCACCTCGATAGCAATATCATAATATTCTTCACAATTAAATGCTATAAAATTTATTTCTGCATACACATCTTAATGATTTCTTAATAACTAAGTTTGAAAATTAATATTTCTCTCATAAACAAGTTGTTACGATGTTGTTGTGTTGTAAGGAGGTTATGGCAATGCTCATCGTTTTATTACTGGTAGTTATTGCATTAGTTTTGTATTTATTTTATGCCTTAATTCGTAGTGAAAAATTTTAGAAATATATTAAGTGAGGGTTATCATGG (double strand) [kdpFABC promoter]”, the binding result in series [1] is given as “binds”. Regarding “GTAATCCATTGTTACCTCCCGATTACAAATTTTGTTCTATCTACTATTTAGCAAAGTAATAATACATCATATCACATTAAATTAATTACTTATGTCTTATATTTAACACTTAATTTAGCGATTACGCAAATGAATGATTTTTCTAAATATTTTATTCTAACTTTATCCGGAAATATTTGTTATACGTATAACTTGGAGAATGACTACTTGAAATTTAATGACGTATACAACAAACACCAC (double strand) [sigS promoter]”, the binding result is “binds” in series [1] and “no binding” in series [2].
